The term stoichiometry N denotes a count of units in the complex or per binding partner.

In data set [1] the target is endogenous PRIN2 of Arabidopsis (Arabidopsis thaliana (endogenous in Col-0 plants and cell culture)) (UniProt Q9XIK0). Briefly: non-reducing SDS-PAGE with immunoblot; protein extracts of isolated chloroplasts (35S:PRIN2 line; WT plants kept in light or 48 h in the dark) or of Arabidopsis cell culture (dark, light, light with 10 mM H2O2, DCMU, MV, high light), nonreducing conditions, anti-PRIN2 polyclonal antibody. On the technique in general: In western blotting, separated proteins are transferred to a membrane and probed.

Data set [2] addresses T1, PRIN2 (PLASTID REDOX INSENSITIVE2), recombinant without transit peptide (Arabidopsis thaliana) (UniProt Q9XIK0).
T1 sequence: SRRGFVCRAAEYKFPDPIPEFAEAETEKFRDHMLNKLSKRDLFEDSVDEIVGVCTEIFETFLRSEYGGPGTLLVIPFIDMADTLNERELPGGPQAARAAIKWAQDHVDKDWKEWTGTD
The experiment in a line: competition EMSA. The note with it: EMSA with 3 ug PRIN2 per reaction; buffer, salt, pH and temperature not given in the material. In general terms: In EMSA bound probe runs differently from free probe, usually more slowly.

The target of data set [3] is recombinant Arabidopsis PRIN2 WT (PLASTID REDOX …2), without the transit peptide (Arabidopsis thaliana) (UniProt Q9XIK0). The experiment in a line: non-reducing SDS-PAGE; purified recombinant protein (1 ug), untreated (air), with 5 mM DTT or other DTT concentrations, or with 2 mM H2O2; 15% polyacrylamide, nonreducing conditions, Coomassie Brilliant Blue; disulfide-linked dimer to monomers.

Data set [4] deals with PRIN2 in isolated chloroplasts of a 35S:PRIN2 line (Arabidopsis thaliana) (UniProt Q9XIK0). The experiment in a line: non-reducing SDS-PAGE with immunoblot; protein extracts of isolated chloroplasts (35S:PRIN2 line; WT plants kept in light or 48 h in the dark) or of Arabidopsis cell culture (dark, light, light with 10 mM H2O2, DCMU, MV, high light), nonreducing conditions, anti-PRIN2 polyclonal antibody.

In data set [5] the target is PRIN2 Cys115Ser (C2S) in transgenic prin2-2 + C2S lines (Arabidopsis thaliana) (UniProt Q9XIK0). Briefly: SDS-PAGE with immunoblot; protein of transgenic prin2-2 lines with PRIN2 variants (Supplementary Figs. 4c and 5); conditions not shown.
Data set [6] concerns the molecule itself. The experiment in a line: SDS-PAGE with immunoblot; input protein extracts of protoplasts transformed with PRIN2-cMyc or TRXz-HA, probed with anti-cMyc or anti-HA; whether reducing or not is not stated.
Data set [7] concerns the target T2, PRIN2 (PLASTID REDOX …2), recombinant without transit peptide (Arabidopsis thaliana, UniProt Q9XIK0 62-179).
T2 sequence: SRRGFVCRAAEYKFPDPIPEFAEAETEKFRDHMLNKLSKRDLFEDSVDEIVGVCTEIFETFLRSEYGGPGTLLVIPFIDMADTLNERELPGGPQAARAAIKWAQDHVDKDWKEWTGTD
The experiment in a line: EMSA; 3 ug protein; competed by 50-fold unlabeled ycf1; EMSA with 3 ug PRIN2 per reaction; buffer, salt, pH and temperature not given in the material. Conditions: tags: His (pET-His1a), label: biotin 3' end (Biotin-14-dCTP), blunt.

Data set [8] deals with T2, PRIN2 (PLASTID REDOX …2), recombinant …. Briefly: competition EMSA; 50-fold excess over labeled ycf1; EMSA with 3 ug PRIN2 per reaction; buffer, salt, pH and temperature not given in the material. Conditions: protein: recombinant, tags: His (pET-His1a), label: none, blunt.

Molecule “endogenous PRIN2 of Arabidopsis (from UniProt Q9XIK0 70-179) (natural protein)” registered a stoichiometry N in data set [1] of 2. Regarding “GAAACAGTATAACATGACTTATATAGCCATGTCAACCAATGTAAAATGGATAAGATCCTTTTAGTTTAGATTCATAAAAAATTTTTTGTAATCGATGAAATAAATTAGAAGCGAATCCACATACATAGAAATAGAATTGCTCTAGGAATATTTTTTCCAAATCATATGAATACGATTGAATACGATCCGTAGTGGGT (double strand) [psbA promoter competitor (psbA_197)]”, the binding result in data set [2] is recorded as “binds”. On to “recombinant Arabidopsis PRIN2 WT (PLASTID REDOX …2), without the transit peptide (from UniProt Q9XIK0 70-179) (natural protein)”, for which the stoichiometry N in data set [3] amounted to 2. For the molecule “PRIN2 in isolated chloroplasts of a 35S:PRIN2 line (from UniProt Q9XIK0 70-179) (natural protein)”, the stoichiometry N in data set [4] was 2. As for “PRIN2 Cys115Ser (C2S) in transgenic prin2-2 + C2S lines (from UniProt Q9XIK0 70-179) (natural protein)”, the stoichiometry N in data set [5] is 2.

B1: PRIN2-cMyc (full-length PRIN2 fused to a cMyc tag) (natural protein, Arabidopsis thaliana, UniProt Q9XIK0 68-179, looked up)
chain: CRAAEYKFPDPIPEFAEAETEKFRDHMLNKLSKRDLFEDSVDEIVGVCTEIFETFLRSEYGGPGTLLVIPFIDMADTLNERELPGGPQAARAAIKWAQDHVDKDWKEWTGTD
notes: also called pRT104-PRIN2-cMyc; source: Arabidopsis Ler suspension culture protoplasts, transiently transformed, in protein extract
As for B1, the “stoichiometry N” value in data set [6] stood at 2.

B2: ycf1 promoter probe (dsDNA)
DNA 1: CCATTCATTTAATATCCCTTTGGTGTCATTGACATAAGAGAT
DNA 2: ATCTCTTATGTCAATGACACCAAAGGGATATTAAATGAATGG
Regarding B2, the binding result in data set [7] is “binds”.

B3: psaA U region competitor (dsDNA)
DNA 1: TTTTTTAATTATAAAAAAGGGTCCGTTGAGCACCCTATCCAT
DNA 2: ATCCATAGGGTGCTCAACGGACCCTTTTTTATAATTAAAAAA
B3: in data set [8] (as printed, strands mismatch near the 3' end of strand 1 (possible misprint)), the binding result is recorded as “binds”.

B4: TRXz-HA (full-length Thioredoxin z fused to an HA tag) (natural protein, Arabidopsis thaliana, UniProt Q9M7X9 82-183, looked up)
chain: AQELQELVKGDRKVPLIVDFYATWCGPCILMAQELEMLAVEYESNAIIVKVDTDDEYEFARDMQVRGLPTLFFISPDPSKDAIRTEGLIPLQMMHDIIDNEM
notes: also called pRT104-TRXz-HA; source: Arabidopsis Ler suspension culture protoplasts, transiently transformed, in protein extract
As for B4, in data set [6], the “stoichiometry N” value was found to be 2.

B5: rpoB promoter competitor (dsDNA)
DNA 1: TATGGTATGCAATCGAATTGGAATATGTAATATCATAGGTGAAAATGAAATTAC
DNA 2: GTAATTTCATTTTCACCTATGATATTACATATTCCAATTCGATTGCATACCATA
B5: the binding result in data set [8] is on record as “binds”.

B6: clpP promoter competitor (dsDNA)
DNA 1: CGAAACCCCAATTTTACGTTTCCACATCAAAGTGAAATAGAGAA
DNA 2: TTCTCTATTTCACTTTGATGTGGAAACGTAAAATTGGGGTTTCG
Consider B6, for which the binding result in data set [8] was “binds”.

The values are drawn from PMC5752674, “Redox regulation of PEP activity during seedling establishment in Arabidopsis thaliana” (Nature Communications, 2018).
